B1: Zinc finger homeobox protein 4, residues 2183 to 2238; numbered along this chain, Q86UP3 (parent)
chain: SSRTRFTDYQLRVLQDFFDTNAYPKDDEIEQLSTVLNLPTRVIVVWFQNARQKARK

± gives the uncertainty stated by the source.

Variants of B1 are the subject of this series. As to the kind of experiment: abundance fitness (aPCA) (normalised: wild type 0, dead -1); higher = more abundant; growth selection in yeast, the domain comes from the species named. The settings on record: Homo sapiens.
As for SSRTRFTDYQLRVLQPFFDTNAYPKDDEIEQLSTVLNLPTRVIVVWFQNARQKARK, the abundance fitness is -0.357 ± 0.14.

For the variant SSRTRFTDYQLRVLQRFFDTNAYPKDDEIEQLSTVLNLPTRVIVVWFQNARQKARK, the abundance fitness is -0.083 ± 0.088.

Turning to SSRTRFTDYQLRVLQSFFDTNAYPKDDEIEQLSTVLNLPTRVIVVWFQNARQKARK, the abundance fitness was 0.042 ± 0.097.

In the case of SSRTRFTDYQLRVLQTFFDTNAYPKDDEIEQLSTVLNLPTRVIVVWFQNARQKARK, the abundance fitness is -0.29 ± 0.13.

For the variant SSRTRFTDYQLRVLQNFFDTNAYPKDDEIEQLSTVLNLPTRVIVVWFQNARQKARK, the abundance fitness was -0.034 ± 0.14.

As to SSRTRFTDYQLRVLQWFFDTNAYPKDDEIEQLSTVLNLPTRVIVVWFQNARQKARK, the abundance fitness was -0.838 ± 0.14.

For SSRTRFTDYQLRVLQYFFDTNAYPKDDEIEQLSTVLNLPTRVIVVWFQNARQKARK, the abundance fitness was -0.458 ± 0.22.

Regarding SSRTRFTDYQLRVLQVFFDTNAYPKDDEIEQLSTVLNLPTRVIVVWFQNARQKARK, the abundance fitness is -0.25 ± 0.086.

Take SSRTRFTDYQLRVLQMFFDTNAYPKDDEIEQLSTVLNLPTRVIVVWFQNARQKARK: the abundance fitness was -0.323 ± 0.12.

For SSRTRFTDYQLRVLQQFFDTNAYPKDDEIEQLSTVLNLPTRVIVVWFQNARQKARK, the abundance fitness was determined as 0.027 ± 0.12.

Regarding SSRTRFTDYQLRVLQDFWDTNAYPKDDEIEQLSTVLNLPTRVIVVWFQNARQKARK, the abundance fitness is -0.027 ± 0.14.

Regarding SSRTRFTDYQLRVLQDFHDTNAYPKDDEIEQLSTVLNLPTRVIVVWFQNARQKARK, the abundance fitness was -0.139 ± 0.08.

On to SSRTRFTDYQLRVLQDFDDTNAYPKDDEIEQLSTVLNLPTRVIVVWFQNARQKARK, for which the abundance fitness was -0.887 ± 0.15.

With SSRTRFTDYQLRVLQDFKDTNAYPKDDEIEQLSTVLNLPTRVIVVWFQNARQKARK, the abundance fitness is -0.194 ± 0.11.

As to SSRTRFTDYQLRVLQDFQDTNAYPKDDEIEQLSTVLNLPTRVIVVWFQNARQKARK, the abundance fitness is -0.329 ± 0.093.

On to SSRTRFTDYQLRVLQDFNDTNAYPKDDEIEQLSTVLNLPTRVIVVWFQNARQKARK, for which the abundance fitness is -0.459 ± 0.086.

SSRTRFTDYQLRVLQDFTDTNAYPKDDEIEQLSTVLNLPTRVIVVWFQNARQKARK: the abundance fitness was -0.449 ± 0.074.

As to SSRTRFTDYQLRVLQDFPDTNAYPKDDEIEQLSTVLNLPTRVIVVWFQNARQKARK, the abundance fitness was -0.891 ± 0.096.

SSRTRFTDYQLRVLQDFEDTNAYPKDDEIEQLSTVLNLPTRVIVVWFQNARQKARK: the abundance fitness is -0.486 ± 0.15.

In the case of SSRTRFTDYQLRVLQDFSDTNAYPKDDEIEQLSTVLNLPTRVIVVWFQNARQKARK, the abundance fitness was -0.225 ± 0.071.

For the variant SSRTRFTDYQLRVLQDFADTNAYPKDDEIEQLSTVLNLPTRVIVVWFQNARQKARK, the abundance fitness is -0.117 ± 0.082.

As for SSRTRFTDYQLRVLQDFCDTNAYPKDDEIEQLSTVLNLPTRVIVVWFQNARQKARK, the abundance fitness is -0.139 ± 0.097.

Regarding SSRTRFTDYQLRVLQDFGDTNAYPKDDEIEQLSTVLNLPTRVIVVWFQNARQKARK, the abundance fitness is -0.711 ± 0.12.

For the variant SSRTRFTDYQLRVLQDFIDTNAYPKDDEIEQLSTVLNLPTRVIVVWFQNARQKARK, the abundance fitness was -0.16 ± 0.076.

Regarding SSRTRFTDYQLRVLQDFRDTNAYPKDDEIEQLSTVLNLPTRVIVVWFQNARQKARK, the abundance fitness is -0.222 ± 0.078.

As for SSRTRFTDYQLRVLQDFYDTNAYPKDDEIEQLSTVLNLPTRVIVVWFQNARQKARK, the abundance fitness was 0.101 ± 0.086.

On to SSRTRFTDYQLRVLQDDFDTNAYPKDDEIEQLSTVLNLPTRVIVVWFQNARQKARK, for which the abundance fitness is -0.591 ± 0.19.

Regarding SSRTRFTDYQLRVLQDPFDTNAYPKDDEIEQLSTVLNLPTRVIVVWFQNARQKARK, the abundance fitness was -1 ± 0.18.

With SSRTRFTDYQLRVLQDNFDTNAYPKDDEIEQLSTVLNLPTRVIVVWFQNARQKARK, the abundance fitness was 0.049 ± 0.15.

Turning to SSRTRFTDYQLRVLQDRFDTNAYPKDDEIEQLSTVLNLPTRVIVVWFQNARQKARK, the abundance fitness worked out at 0.02 ± 0.078.

As to SSRTRFTDYQLRVLQDHFDTNAYPKDDEIEQLSTVLNLPTRVIVVWFQNARQKARK, the abundance fitness was 0.079 ± 0.14.

For the variant SSRTRFTDYQLRVLQDSFDTNAYPKDDEIEQLSTVLNLPTRVIVVWFQNARQKARK, the abundance fitness was -0.097 ± 0.1.

Consider SSRTRFTDYQLRVLQDMFDTNAYPKDDEIEQLSTVLNLPTRVIVVWFQNARQKARK, for which the abundance fitness is -0.004 ± 0.12.

SSRTRFTDYQLRVLQDEFDTNAYPKDDEIEQLSTVLNLPTRVIVVWFQNARQKARK: the abundance fitness is -0.252 ± 0.12.

As for SSRTRFTDYQLRVLQDYFDTNAYPKDDEIEQLSTVLNLPTRVIVVWFQNARQKARK, the abundance fitness was -0.196 ± 0.17.

With SSRTRFTDYQLRVLQDQFDTNAYPKDDEIEQLSTVLNLPTRVIVVWFQNARQKARK, the abundance fitness amounted to 0.051 ± 0.11.

Consider SSRTRFTDYQLRVLQDTFDTNAYPKDDEIEQLSTVLNLPTRVIVVWFQNARQKARK, for which the abundance fitness is -0.086 ± 0.11.

On to SSRTRFTDYQLRVLQDIFDTNAYPKDDEIEQLSTVLNLPTRVIVVWFQNARQKARK, for which the abundance fitness was -0.135 ± 0.18.

For SSRTRFTDYQLRVLQDLFDTNAYPKDDEIEQLSTVLNLPTRVIVVWFQNARQKARK, the abundance fitness is -0.12 ± 0.09.

For SSRTRFTDYQLRVLQDGFDTNAYPKDDEIEQLSTVLNLPTRVIVVWFQNARQKARK, the abundance fitness is -0.243 ± 0.082.

For the variant SSRTRFTDYQLRVLQDAFDTNAYPKDDEIEQLSTVLNLPTRVIVVWFQNARQKARK, the abundance fitness is -0.006 ± 0.097.

As for SSRTRFTDYQLRVLQDKFDTNAYPKDDEIEQLSTVLNLPTRVIVVWFQNARQKARK, the abundance fitness was -0.094 ± 0.1.

On to SSRTRFTDYQLRVLQDVFDTNAYPKDDEIEQLSTVLNLPTRVIVVWFQNARQKARK, for which the abundance fitness was -0.25 ± 0.09.

For SSRTRFTDYQLRVLQDFFCTNAYPKDDEIEQLSTVLNLPTRVIVVWFQNARQKARK, the abundance fitness was -0.236 ± 0.14.

For the variant SSRTRFTDYQLRVLQDFFATNAYPKDDEIEQLSTVLNLPTRVIVVWFQNARQKARK, the abundance fitness came out at 0.108 ± 0.081.

For the variant SSRTRFTDYQLRVLQDFFFTNAYPKDDEIEQLSTVLNLPTRVIVVWFQNARQKARK, the abundance fitness is -0.146 ± 0.19.

Regarding SSRTRFTDYQLRVLQDFFETNAYPKDDEIEQLSTVLNLPTRVIVVWFQNARQKARK, the abundance fitness is -0.235 ± 0.11.
